{"source": "paper PMC7531118", "about": "“Investigating host-microbiome interactions by droplet based microfluidics” (Microbiome, 2020)", "key": {"[1]": {"tested_on": "CC(=O)N[C@H]1[C@H](Oc2ccc([N+](=O)[O-])cc2)O[C@H](CO)[C@H](O)[C@@H]1O", "assay": "purified protein", "details": "citrate buffer pH 5.5, 0.25 to 1.5 mM substrate, 30.0 °C"}, "[2]": {"tested_on": "CC(=O)N[C@H]1[C@H](Oc2ccc([N+](=O)[O-])cc2)O[C@H](CO)[C@@H](O)[C@@H]1O", "assay": "purified protein", "details": "citrate buffer pH 5.5, 0.25 to 1.5 mM substrate, 30.0 °C"}}}
{"substance": "Uhgb_GH123 (Phocaeicola plebeius DSM 17135)", "values": [{"measurement": "Km", "setting": "[1]", "result": "1170 ± 100", "unit": "µM"}, {"measurement": "kcat", "setting": "[1]", "result": "21.2 ± 1.18", "unit": "s⁻¹"}, {"measurement": "kcat/Km", "setting": "[1]", "result": 18200, "unit": "M⁻¹ s⁻¹"}, {"measurement": "Km", "setting": "[2]", "result": "3870 ± 270", "unit": "µM"}, {"measurement": "kcat", "setting": "[2]", "result": "0.33 ± 0.02", "unit": "s⁻¹"}, {"measurement": "kcat/Km", "setting": "[2]", "result": 85, "unit": "M⁻¹ s⁻¹"}]}
